Source: patent US20040258705A1, “Use of lectins to promote oligomerization of glycoproteins and antigenic molecules” (Antigenics Inc., priority 2003, published 2004)
“Also recorded” adds a separate entry of the source.

Experiments:
[1] = Sigma lectin list; cited from earlier work
[2] = target: gp96 (Mus musculus, UniProt P08113); experiment: Analytical SEC of Meth A gp96 with added Con A; type: binding, murine
Description: To verify gp96 was oligomerized with Con A, a common homogenate from Meth A-induced murine fibrosarcoma tissue was prepared and processed using a process that included Con A and DEAE column chromatography. The final purified gp96 preparation was divided in two. To one half of the material, exogenous con A was added to a final concentration of 50 ug/mL; buffer alone was added to the other as a control, both samples incubated at 37° C. for 2 hr and then fractionated by SEC (Superdex 200). Individual fractions were analyzed by SDS-PAGE, and by gp96- and con A-specific ELISA. Analytical data for material […] is shown in the left panel; that to which con A was added to the right. In the left panel the peak of gp96 is in fraction 5 and con A levels as detected by specific ELISA are low. In the right panel (con A added) two peaks of gp96 are evident as shown by SDS-PAGE (inset; peak fractions 3 (arrow) and 5) and gp96 ELISA (fractions 3 and 5) as well as a distinct peak of Con A centered on fraction 3.
Con A was added (50 ug/mL final) to an aliquot of this gp96 sample (conc. 500 ug/ml), the sample incubated at RT and hourly samples were taken (T=1 through T=5) and analyzed by SEC. A sample comprising con A alone was also run. […] Each sample was then re-analyzed by SEC. […]

[3] = tested on: Meth A cells; experiment: In vivo Meth A tumor inhibition (tumor protection / rejection) assay; set-up: species or system BALB/c mice; conditions: for tumor rejection activity, Con A added in process or to final product: in process 30 and 300 μg/ml, following purification 30 μg/ml
Description: (§1) In vivo Meth A growth inhibition assay: BALB/c mice (n=30/group) were immunized on day 0 and day 7 with 10 or 50 μg of gp96 intradermally in the flank. On study day 14, mice were challenged with 1×10^5 Meth A cells intradermally in a total volume of 100 μl. Growing tumors were monitored during the subsequent four weeks. All animals were euthanized on study day 41 after a final tumor measurement. Data was reported as percentage of animals that are tumor-free on study day 41. Control groups included un-immunized (diluent—negative control) and immunized with irradiated Meth A cells (positive control).
as §1, with “(n=10/group)” for “(n=30/group)”, “10” for “10 or 50”, “gl.” for “μl.”
as §1, with “(n=10/group)” for “(n=30/group)”, “10” for “10 or 50”
as §1, with “mice (n=10/group)” for “mice (n=30/group)”, “with 0.3” for “with 10”, “or 3” for “or 50”, “gp96 alone or in combination with Con A” for “gp96”

## PHA-L: Phaseolus Vulgaris lectin, Sigma product
[1]
  Specificity Sugar: oligosaccharide

## PHA-E: Phaseolus Vulgaris lectin, Sigma product
[1]
  Specificity Sugar: oligosaccharide

## CO[C@H]1O[C@H](CO)[C@@H](O)[C@H](O)[C@@H]1O [α-MM, Methyl α-D-Mannopyranoside, reference compound]
[2]; equal volume of PBS containing 10% α-MM added to 5 hr gp96 + Con A sample
  effect on high molecular weight gp96-Con A complex in SEC: dissociated the high molecular weight complex

## Concanavalin A [Con A]
[2]; Con A 50 ug/mL added to Meth A gp96, Superdex 200 or superose 6
  elution position of gp96 in SEC: mediated a shift in the elution position of the gp96 dimer peak
[1]
  Specificity Sugar: α-man, α-glc

B1: HSPPC-96 + Con A (in process): Meth A derived gp96 with Con A added during the purification process, before the DEAE column (protein, UniProt P08113 22-802, looked up)
Endoplasmin: DDEVDVDGTVEEDLGKSREGSRTDDEVVQREEEAIQLDGLNASQIRELREKSEKFAFQAEVNRMMKLIINSLYKNKEIFLRELISNASDALDKIRLISLTDENALAGNEELTVKIKCDKEKNLLHVTDTGVGMTREELVKNLGTIAKSGTSEFLNKMTEAQEDGQSTSELIGQFGVGFYSAFLVADKVIVTSKHNNDTQHIWESDSNEFSVIADPRGNTLGRGTTITLVLKEEASDYLELDTIKNLVRKYSQFINFPIYVWSSKTETVEEPLEEDEAAKEEKEESDDEAAVEEEEEEKKPKTKKVEKTVWDWELMNDIKPIWQRPSKEVEEDEYKAFYKSFSKESDDPMAYIHFTAEGEVTFKSILFVPTSAPRGLFDEYGSKKSDYIKLYVRRVFITDDFHDMMPKYLNFVKGVVDSDDLPLNVSRETLQQHKLLKVIRKKLVRKTLDMIKKIADEKYNDTFWKEFGTNIKLGVIEDHSNRTRLAKLLRFQSSHHSTDITSLDQYVERMKEKQDKIYFMAGSSRKEAESSPFVERLLKKGYEVIYLTEPVDEYCIQALPEFDGKRFQNVAKEGVKFDESEKTKESREATEKEFEPLLNWMKDKALKDKIEKAVVSQRLTESPCALVASQYGWSGNMERIMKAQAYQTGKDISTNYYASQKKTFEINPRHPLIRDMLRRIKEDEDDKTVMDLAVVLFETATLRSGYLLPDTKAYGDRIERMLRLSLNIDPEAQVEEEPEEEPEDTSEDAEDSEQDEGEEMDAGTEEEEEETEKESTEKDEL
modifications: tumor-derived; Con A added
notes: Meth A derived gp96 with Con A added during the purification process, before the DEAE column
[3]; Con A 3, 10, 30, 100, 300 ug/ml added before DEAE, 10 μg gp96, tumor-free on day 41
  tumor rejection activity, Con A added in process at graded levels: titratable increase in the tumor rejection activity
[3]; 10 μg gp96
  tumor rejection activity, Con A added in process or to final product: increase in the tumor rejection activity; also recorded: increases the tumor rejection activity

B2: HSPPC-96 + Con A (final product): Meth A derived gp96 purified by standard procedure with Con A (30 ug/mL) added following purification (protein, UniProt P08113 22-802, looked up)
Endoplasmin: DDEVDVDGTVEEDLGKSREGSRTDDEVVQREEEAIQLDGLNASQIRELREKSEKFAFQAEVNRMMKLIINSLYKNKEIFLRELISNASDALDKIRLISLTDENALAGNEELTVKIKCDKEKNLLHVTDTGVGMTREELVKNLGTIAKSGTSEFLNKMTEAQEDGQSTSELIGQFGVGFYSAFLVADKVIVTSKHNNDTQHIWESDSNEFSVIADPRGNTLGRGTTITLVLKEEASDYLELDTIKNLVRKYSQFINFPIYVWSSKTETVEEPLEEDEAAKEEKEESDDEAAVEEEEEEKKPKTKKVEKTVWDWELMNDIKPIWQRPSKEVEEDEYKAFYKSFSKESDDPMAYIHFTAEGEVTFKSILFVPTSAPRGLFDEYGSKKSDYIKLYVRRVFITDDFHDMMPKYLNFVKGVVDSDDLPLNVSRETLQQHKLLKVIRKKLVRKTLDMIKKIADEKYNDTFWKEFGTNIKLGVIEDHSNRTRLAKLLRFQSSHHSTDITSLDQYVERMKEKQDKIYFMAGSSRKEAESSPFVERLLKKGYEVIYLTEPVDEYCIQALPEFDGKRFQNVAKEGVKFDESEKTKESREATEKEFEPLLNWMKDKALKDKIEKAVVSQRLTESPCALVASQYGWSGNMERIMKAQAYQTGKDISTNYYASQKKTFEINPRHPLIRDMLRRIKEDEDDKTVMDLAVVLFETATLRSGYLLPDTKAYGDRIERMLRLSLNIDPEAQVEEEPEEEPEDTSEDAEDSEQDEGEEMDAGTEEEEEETEKESTEKDEL
modifications: tumor-derived; Con A added
[3]; 10 μg gp96
  tumor rejection activity, Con A added in process or to final product: increase in the tumor rejection activity; also recorded: increases the tumor rejection activity

B3: scFv-purified Meth A gp96 + Con A: Meth A derived gp96 from anti-gp96 scFv immunoaffinity column, Con A added (protein, UniProt P08113 22-802, looked up)
Endoplasmin: DDEVDVDGTVEEDLGKSREGSRTDDEVVQREEEAIQLDGLNASQIRELREKSEKFAFQAEVNRMMKLIINSLYKNKEIFLRELISNASDALDKIRLISLTDENALAGNEELTVKIKCDKEKNLLHVTDTGVGMTREELVKNLGTIAKSGTSEFLNKMTEAQEDGQSTSELIGQFGVGFYSAFLVADKVIVTSKHNNDTQHIWESDSNEFSVIADPRGNTLGRGTTITLVLKEEASDYLELDTIKNLVRKYSQFINFPIYVWSSKTETVEEPLEEDEAAKEEKEESDDEAAVEEEEEEKKPKTKKVEKTVWDWELMNDIKPIWQRPSKEVEEDEYKAFYKSFSKESDDPMAYIHFTAEGEVTFKSILFVPTSAPRGLFDEYGSKKSDYIKLYVRRVFITDDFHDMMPKYLNFVKGVVDSDDLPLNVSRETLQQHKLLKVIRKKLVRKTLDMIKKIADEKYNDTFWKEFGTNIKLGVIEDHSNRTRLAKLLRFQSSHHSTDITSLDQYVERMKEKQDKIYFMAGSSRKEAESSPFVERLLKKGYEVIYLTEPVDEYCIQALPEFDGKRFQNVAKEGVKFDESEKTKESREATEKEFEPLLNWMKDKALKDKIEKAVVSQRLTESPCALVASQYGWSGNMERIMKAQAYQTGKDISTNYYASQKKTFEINPRHPLIRDMLRRIKEDEDDKTVMDLAVVLFETATLRSGYLLPDTKAYGDRIERMLRLSLNIDPEAQVEEEPEEEPEDTSEDAEDSEQDEGEEMDAGTEEEEEETEKESTEKDEL
modifications: tumor-derived; Con A added
[3]; 0.3 or 3 μg gp96 alone or in combination with Con A
  tumor rejection activity, immunoaffinity (scFv) purified gp96 with Con A: increases the tumor rejection activity

B4: Pseudomonas aeruginosa (PA-I): lectin, Sigma product (protein, UniProt Q05097 2-122, looked up)
PA-I galactophilic lectin: AWKGEVLANNEAGQVTSIIYNPGDVITIVAAGWASYGPTQKWGPQGDREHPDQGLICHDAFCGALVMKIGNSGTIPVNTGLFRWVAPNNVQGAITLIYNDVPGTYGNNSGSFSVNIGKDQS
[1]
  Specificity Sugar: gal
